Results published in US9631002B2, “Methods and compositions for producing active vitamin K-dependent proteins” (The University of North Carolina at Chapel Hill, priority 2010, dated 2017).
Positions count from the first letter of the chain named. Numbers in names are those of the source. Unless stated, no cut-off for active and inactive is given here. Entries after “also recorded” stand apart in the source; their conditions may differ.

Test system: carboxylation of FIXgla-PC reporter protein in HEK293 cells (reduction of KO to vitamin K)
Assay: Cell-based VKOR activity assay: recombinant VKOR/VKORH expressed in FIXgla-PC/HEK293 cells with KO and warfarin, carboxylated reporter by ELISA
Set-up: species or system human
Conditions: for ability to promote carboxylation of the reporter protein compared to recombinant human VKOR: FIXgla-PC HEK293 (FIGS. 9, 10); for Relative activity: Human Y139F: VKOR of the organism compared to human Y139F VKOR, cell-based carboxylation; for ability of human VKOR with replaced residues 122-139 to use KO to carboxylate the reporter: 48 h, HEK293 (FIG. 11C); for sensitivity to warfarin: warfarin level used in these assays; for activity in the in vivo assay: cysteine mutants of VKOR-Y139F, 4 μM warfarin (FIGS. 17A-B); for carboxylation of reporter protein by human VKOR cysteine mutants: Y139F background, HEK293 (FIG. 13); for amount of carboxylated reporter protein with mutated recombinant human VKOR: FIG. 12, compared to human VKOR Y139F

VKOR: human vitamin K epoxide reductase, AAS01052, SEQ ID NO:5
activity in cell-based in vivo activity assays: active in the vitamin K cycle

B1: Hamster: Syrian golden hamster (AV12) VKOR, SEQ ID NO:3, Y139F warfarin resistant (protein, listed as Cricetulus griseus)
chain: MGTTWRSPGRWRLALCLAGLALSLYALHVKAARARDEDYRALCDVGSAISCSRVFSSRWGKGLGLVEHVLGPDSVLNQNSIFGCIFYTIQLLLGCLRGRWAFLLLVLSSLVSFAGSVYLAWILFFVLYDFCIVCITTYVINVGLMLLNFQDVPEHKAKRH
ability to promote carboxylation of the reporter protein compared to recombinant human VKOR (5 μM KO, 2 μM warfarin): undiminished ability | Relative activity: Human Y139F: Yes, greater

B2: Nematostella: VKOR from Nematostella rendered warfarin resistant by Y135F mutation, SEQ ID NO:10 (protein, listed as Nematostella vectensis)
chain: MDKLGGFRMMLCVAGVFLSAYALNVEVSKSNNKDYRAICDISEKISCSKVFSSKYGTGFGLVEPIFGKDSTLNVPNSIFGIMFYTMVFLLGFSRSKLAAQLSVFSAVLSCLGSVYLGCILYFVLQDVCIICISTYVVNACLLVVNSLSLVNLQERTKRKQK
ability to promote carboxylation of the reporter protein compared to recombinant human VKOR (5 μM KO, 2 μM warfarin): consistently better; also recorded: considerably more active | ability to promote carboxylation of the reporter protein compared to recombinant human VKOR (5 μM KO, 2 μM warfarin, listed as Nematostella Y135F): greater ability to stimulate carboxylation | Relative activity: Human Y139F: Yes, greater

B3: hVKOR Roseiflexus: human VKOR with residues 122-139 replaced by Roseiflexus VKOR 300-317, SEQ ID NO:33 (protein)
chain: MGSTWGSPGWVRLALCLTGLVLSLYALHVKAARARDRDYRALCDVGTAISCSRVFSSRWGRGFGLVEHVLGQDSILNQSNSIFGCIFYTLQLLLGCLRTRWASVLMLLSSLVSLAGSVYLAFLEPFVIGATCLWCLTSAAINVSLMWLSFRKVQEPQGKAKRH
modifications: Human VKOR with amino acids 122-139 substituted with amino acids 300-317 of Roseiflexus sp. RS-1 VKOR (RefSeq accession no. YP_001274867)
ability of human VKOR with replaced residues 122-139 to use KO to carboxylate the reporter (5 μM KO, 2 μM warfarin): only the human VKOR substituted with the M. tuberculosis domain functions as a VKOR

B4: MT-VKORH: Mycobacterium tuberculosis VKOR homologue, NP_217484, SEQ ID NO:18 (protein, listed as Mycobacterium tuberculosis)
chain: MVAARPAERSGDPAAVRVPVPSAWWVLIGGVIGLFASMTLTVEKVRILLDPIYVPSCNVNPIVSCGSVMTTPQASLLGFPNPLLGIAGFTVVVVTGVLAVAKVPLPRWYWIGLAVGILVGVAFVHWLIFQSLYRIGALCPYCMVVWAVIATLLVVVASIVFGPMRENRGSQERVGARLLYQWRWSLATLWFTTVFLLIMVRFWDYSTLI
ability to promote carboxylation of the reporter protein compared to recombinant human VKOR (5 μM KO, 2 μM warfarin): greater activity | support of carboxylation of the reporter protein with KO as substrate (5 μM KO, 4 μM warfarin, 48 h (FIG. 15B)): supported carboxylation of the reporter protein | sensitivity to warfarin: naturally resistant to warfarin | sensitivity to warfarin (listed as VKOR from Mycobacterium tuberculosis): resistant to warfarin at the doses employed

B5: C43-51-DEL: VKOR-Y139F with deletion of C43, C51 and the residues between them (protein, UniProt Q9BQB6 1-163, looked up, variant Y139F del43-51)
Vitamin K epoxide reductase …: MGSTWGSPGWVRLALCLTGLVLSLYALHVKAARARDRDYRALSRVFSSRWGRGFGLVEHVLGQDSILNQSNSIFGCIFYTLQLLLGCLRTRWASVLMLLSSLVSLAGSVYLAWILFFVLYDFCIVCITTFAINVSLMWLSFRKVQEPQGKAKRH
activity in the in vivo assay (5 μM KO): ~60%

B6: hVKOR Synechococcus: human VKOR with residues 122-139 replaced by Synechococcus VKOR 120-137, SEQ ID NO:31 (protein)
chain: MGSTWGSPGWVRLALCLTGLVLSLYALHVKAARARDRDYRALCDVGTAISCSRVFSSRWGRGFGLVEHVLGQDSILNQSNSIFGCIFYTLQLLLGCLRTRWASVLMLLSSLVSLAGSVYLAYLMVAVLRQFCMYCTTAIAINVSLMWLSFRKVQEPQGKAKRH
modifications: Human VKOR with amino acids 122-139 substituted with amino acids 120-137 of Synechococcus sp. JA-2-3B′a(2-13) VKOR (RefSeq accession no. YP_478481)
ability of human VKOR with replaced residues 122-139 to use KO to carboxylate the reporter (5 μM KO, 2 μM warfarin): only the human VKOR substituted with the M. tuberculosis domain functions as a VKOR

B7: Platypus: duck-billed platypus VKOR, SEQ ID NO:16, lacks cysteines corresponding to 43 and 51 (protein, listed as Ornithorhynchus anatinus)
chain: MGAWVPTRSARVVGPRALGSRVATAVQPSAVDPDTRHDRIPSLRWGRGFGLVEMVLGPDSSLNQPNSVFGLLFYSLQLLLGCSRAPWTSVVLALSSLLSLAGSLYLAWILFFVLHDFCFVCITTYAINVGLALLNYRRLKQAQGKVMKYCDESSPASSLLERRFYSGGGLRNGGSAASFPFPPATGH
ability to promote carboxylation of the reporter protein compared to recombinant human VKOR (5 μM KO, 2 μM warfarin): inactive | Relative activity: Human Y139F: No

B8: VKORC1L1: the VKOR paralogue, four TMDs (protein, UniProt Q8N0U8 1-176, looked up)
Vitamin K epoxide reductase …: MAAPVLLRVSVPRWERVARYAVCAAGILLSIYAYHVEREKERDPEHRALCDLGPWVKCSAALASRWGRGFGLLGSIFGKDGVLNQPNSVFGLIFYILQLLLGMTASAVAALILMTSSIMSVVGSLYLAYILYFVLKEFCIICIVTYVLNFLLLIINYKRLVYLNEAWKRQLQPKQD
activity in cell-based in vivo activity assays: active in the vitamin K cycle

B9: Acropora: Acropora VKOR (translation of EZ012735, SEQ ID NO:9), Y136F warfarin resistant (protein, listed as Acropora millepora)
chain: MVSFLGISRLLVCLAGIALSIYALHVELSKAHDKDYKALCDINEHMSCSKVFTSKYGTGFGLVEPLLGKNHPFNVPNSIFGIIFYSLIIILGVVSGKFAALMMFLFSLASCVGSVYLGYILFYILHDTCVVCISTYVVNACLFVINMITLNDALSAPSPKKKKN
ability to promote carboxylation of the reporter protein compared to recombinant human VKOR (5 μM KO, 2 μM warfarin): also promotes carboxylation of the reporter protein | Relative activity: Human Y139F: Yes, greater

B10: C51A/Y139F: human VKOR with C51A and Y139F mutations (protein)
chain: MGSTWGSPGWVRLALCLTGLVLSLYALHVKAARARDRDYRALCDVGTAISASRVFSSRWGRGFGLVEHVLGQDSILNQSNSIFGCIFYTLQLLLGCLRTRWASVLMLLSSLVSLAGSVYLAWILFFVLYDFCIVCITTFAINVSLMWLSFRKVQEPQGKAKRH
modifications: Human VKOR with C51A mutation
notes: human VKOR with C51A and Y139F mutations
ability to promote carboxylation of the reporter protein compared to recombinant human VKOR (5 μM KO, 2 μM warfarin): greater activity | carboxylation of reporter protein by human VKOR cysteine mutants (4 μM warfarin): greater activity than VKORY139F | activity relative to human VKOR (Y139F) (both human forms carry Y139F, 5 μM KO, 2 μM warfarin): about 2 fold

B11: Y139W_IV133PY: human VKOR with residue 139 changed to W and IV at 133-134 changed to PY (protein, UniProt Q9BQB6 1-163, looked up, variant Y139W I133P V134Y)
Vitamin K epoxide reductase …: B10 chain with A51C, I133P, V134Y, F139W
amount of carboxylated reporter protein with mutated recombinant human VKOR: does not restore activity

B12: C43/51A: VKOR-Y139F with double mutation C43A and C51A (protein, UniProt Q9BQB6 1-163, looked up, variant Y139F C43A C51A)
Vitamin K epoxide reductase …: B10 chain with C43A
carboxylation of reporter protein by human VKOR cysteine mutants (4 μM warfarin): restores normal (VKORY139F) activity | activity in the in vivo assay (5 μM KO): ~60%

B13: Y139W: human VKOR with tyrosine 139 mutated to tryptophan (protein, UniProt Q9BQB6 1-163, looked up, variant Y139W)
Vitamin K epoxide reductase …: B10 chain with A51C, F139W
amount of carboxylated reporter protein with mutated recombinant human VKOR: further reduction

B14: 5C-Mut: VKOR-Y139F with C16A, C43A, C51A, C85A and C96A simultaneously (protein, UniProt Q9BQB6 1-163, looked up, variant Y139F C16A C43A C51A C85A C96A)
Vitamin K epoxide reductase …: B10 chain with C16A, C43A, C85A, C96A
carboxylation of reporter protein by human VKOR cysteine mutants (4 μM warfarin): indistinguishable from VKORY139F | activity in the in vivo assay (5 μM KO): ~40%

B15: VKOR-CM: human VKOR with R37G, R35G, R33G, K30L, G9R, S7R and G6R mutations, SEQ ID NO:35 (protein)
chain: B10 chain with G6R, S7R, G9R, K30L, R33G, R35G, R37G, A51C, F139Y
modifications: Human VKOR comprising an R37G mutation, an R35G mutation, an R33G mutation, a K30L mutation, a G9R mutation, an S7R mutation and a G6R mutation
ability to carboxylate vitamin K dependent reporter protein relative to wild type / control VKOR (charge-mutated human VKOR (FIG. 32)): approximately fourfold; also recorded: about four times more active
